Reference: patent US6716816
Where no end group is shown, it is not given here. [ ]: non-standard residue; d: D form. Aib = CC(C)(N)C(=O)O

Molecular target: T1, lecithin:cholesterol acyltransferase (LCAT), purified from human plasma (human, UniProt P04180 25-440)
T1 sequence (looked up): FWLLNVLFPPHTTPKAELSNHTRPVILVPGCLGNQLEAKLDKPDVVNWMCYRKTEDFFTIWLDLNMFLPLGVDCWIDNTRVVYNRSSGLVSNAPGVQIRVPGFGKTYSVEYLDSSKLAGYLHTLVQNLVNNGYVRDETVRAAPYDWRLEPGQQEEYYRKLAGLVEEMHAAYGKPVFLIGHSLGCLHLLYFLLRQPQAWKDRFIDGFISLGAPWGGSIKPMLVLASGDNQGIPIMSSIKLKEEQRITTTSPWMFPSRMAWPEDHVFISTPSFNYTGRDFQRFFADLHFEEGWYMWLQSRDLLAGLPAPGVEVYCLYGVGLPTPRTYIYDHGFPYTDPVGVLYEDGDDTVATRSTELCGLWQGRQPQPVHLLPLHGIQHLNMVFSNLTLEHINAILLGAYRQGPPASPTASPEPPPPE
Experiment: cell-based or functional assay

ACTIVITY (%) LCAT: 9%
B1: peptide 78 (peptide)
peptide: PVLDEFRDKLNE[Aib]LEALKQKLK
